Test results taken from patent publication US20260207747A1 (ARTIVA BIOTHERAPEUTICS, published 2026).
Residue numbers refer to the chain shown, from its start. Numbers in names are those of the source.

B1: Antibody #1 (Clone ID 01P08A) (antibody, V domains shown)
VH: QVQLQESGPGLVKPSETLSLTCIVSGGSISSYYWNWIRQPAGKGLEWIGRIYKSGNNIYNPSLQSRVTMSLDTSKNQFSLKLSSVTAADTAVYYCADGGNYFDWFDPWGQGTLVIVSS
VL: QPVLTQPPSASASLGASVTLTCTLSSGYSNYKVDWYQQRPGKGPRFVMRVGTGGIVGSKGDGIPDRFSVLGSGLIRYLTIKNIQEEDESDYHCGADHGSGNNFVYVFGTGTKVTVL
notes: Raised in AlivaMab mice immunised with human BCMA and purified on protein A. Detected with anti-mouse IgG
B2: Antibody #5 (Clone ID 16M16A) (antibody, V domains shown)
VH: QVQLVQSGTEVKKPGASVKVSCKASGSTFTSFFIHWVRQAPGQGLEWMGLINPSGGGTGYALKFQGRVTMTRDTSTSTVYMELSSLRSEDTAVYFCSRGNYEAFDLWGHGTMVTVSS
VL: B1 VL with I75N, N101S
notes: as for B1
B3: Antibody #4 (Clone ID 14D14A_C) (antibody, V domains shown)
VH: QVQLQESGPGLVKPSETLSLTCTVSGGSISSYYWCWIRQSAGKGLEWIGRMYTSGSTNYNPSLKSRVTMSVDTSKNQFSLKLTSVTAADTAVYYCARERGYYYGGGGWIDPWGQGTLVTVSS
VL: not shown
notes: Same VL as 14D14A; The VH differs in Kabat CDR-H1 (SYYWC)
B4: 01P08A scFv (scFv)
scFv: QPVLTQPPSASASLGASVTLTCTLSSGYSNYKVDWYQQRPGKGPRFVMRVGTGGIVGSKGDGIPDRFSVLGSGLIRYLTIKNIQEEDESDYHCGADHGSGNNFVYVFGTGTKVTVLGGGGSGGGGSGGGGSQVQLQESGPGLVKPSETLSLTCIVSGGSISSYYWNWIRQPAGKGLEWIGRIYKSGNNIYNPSLQSRVTMSLDTSKNQFSLKLSSVTAADTAVYYCADGGNYFDWFDPWGQGTLVIVSS
notes: VL-(G4S)3-VH
B5: 13I04A scFv (scFv)
scFv: DIVMTQSPDSLAVSLGERATINCKSSQSVLYSSYNKNYLAWYQQKPGQPPKILIYWASTRESGVPDRFTGSGSGTDFTLTISSLQAEDVAVYYCQQYYSTMYSFGQGTKLEIKGGGGSGGGGSGGGGSEVQLVESGGGLVQPGGSLRLSCAASGFTSSNYWMSWVRQAPGKGLEWVANIKHDGSEKYFVDSVKGRFTISRDNANNSLYLQMNSLRDEDTAVYYCARMRPWYYDLWGRGTLVTVSS
notes: VL-(G4S)3-VH
B6: 13L15A scFv (scFv)
scFv: QPVLTQPPSASASLGASVTLTCTLSSGYSNYRVDWYQQRPGKGPRFVMRVGTGGIVGSKGDGIPDRFSVLGSGLNRYLTIKNIQEEDESDYHCGADHGSGSNFVWVFGGGTKLTVLGGGGSGGGGSGGGGSQAQLVQSGAEVKRPGASVKVSCKASGYTFISYLLHWVRQAPGQGLEWMVIINPSVGSTSYAQKFQGRVTMTRDTSTSTLYMELSSLRSEDTAVYYCARSSRNYWDGAFDIWGQGTMVTVSS
notes: VL-(G4S)3-VH
B7: 16M16A scFv (scFv)
scFv: QPVLTQPPSASASLGASVTLTCTLSSGYSNYKVDWYQQRPGKGPRFVMRVGTGGIVGSKGDGIPDRFSVLGSGLNRYLTIKNIQEEDESDYHCGADHGSGSNFVYVFGTGTKVTVLGGGGSGGGGSGGGGSQVQLVQSGTEVKKPGASVKVSCKASGSTFTSFFIHWVRQAPGQGLEWMGLINPSGGGTGYALKFQGRVTMTRDTSTSTVYMELSSLRSEDTAVYFCSRGNYEAFDLWGHGTMVTVSS
notes: VL-(G4S)3-VH
B8: Antibody #2 (Clone ID 13I04A) (antibody, V domains shown)
VH: EVQLVESGGGLVQPGGSLRLSCAASGFTSSNYWMSWVRQAPGKGLEWVANIKHDGSEKYFVDSVKGRFTISRDNANNSLYLQMNSLRDEDTAVYYCARMRPWYYDLWGRGTLVTVSS
VL: not shown
notes: Raised in AlivaMab mice immunised with human BCMA and purified on protein A. Detected with anti-mouse IgG; also called 13104A
B9: Antibody #3 (Clone ID 13L15A) (antibody, V domains shown)
VH: QAQLVQSGAEVKRPGASVKVSCKASGYTFISYLLHWVRQAPGQGLEWMVIINPSVGSTSYAQKFQGRVTMTRDTSTSTLYMELSSLRSEDTAVYYCARSSRNYWDGAFDIWGQGTMVTVSS
VL: B1 VL with K32R, I75N, N101S, Y105W, T109G, V113L
notes: as for B1
B10: Antibody #4 (Clone ID 14D14A) (antibody, V domains shown)
VH: B3 VH
VL: not shown
notes: That clone differs in Kabat CDR-H1 (SYYWC against SYYWS)

Columns and labels:
[1] = biological target: T1, human B cell maturation antigen (BCMA), full-length, on cells (human, UniProt Q02223 1-184); test: FACS titration (Scatchard analysis) on BCMA-expressing human NCI-H929 cells; anti-mouse IgG-A647 detection
T1 construct: also called CD269; TNFRSF17
T1 sequence: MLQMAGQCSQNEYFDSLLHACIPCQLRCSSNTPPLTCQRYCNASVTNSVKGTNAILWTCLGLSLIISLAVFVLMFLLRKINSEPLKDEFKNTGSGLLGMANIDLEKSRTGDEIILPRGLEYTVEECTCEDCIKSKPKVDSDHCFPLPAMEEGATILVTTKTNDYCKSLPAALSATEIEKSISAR
Method: (§1) Antibodies were generated by immunizing AlivaMab mice with human BCMA and sequenced. The antibody sequences are shown in Table 3, Table 4, Table 5, Table 6, Table 7, and Table 8. […] Antibodies were titrated from 10 nM, with seven 1:5 dilutions. A positive control, mouse anti-human BCMA antibody (Biolegend, cat #357514) was tested in each experiment. Binding readout was measured via secondary detection, using an anti-mouse IgG-A647 nm (dilution 1:10000).

[2] = biological target: T1, human B cell maturation antigen (BCMA), …; test: FACS titration (Scatchard analysis) on HEK-293T cells stably expressing full-length human BCMA; anti-mouse IgG-A647 detection
Method: as §1

[3] = biological target: T1, human B cell maturation antigen (BCMA), …; test: FACS titration; cells not named in the heading (value equals the NCI-H929 EC50 of 14D14A in Table 2); heading of Table 6; cells not given
[4] = biological target: T1, human B cell maturation antigen (BCMA), …; test: Retrogenix Cell Microarray, proteins expressed in human HEK293 cells

EC50 [1] [nM] | EC50 [2] [nM] | EC50 [3] [nM] | binding result [4] | Binder
3.79 | 1.03 |  |  | B1
0.188 | 0.04 |  |  | B2
 |  | 0.827 |  | B3
 |  |  | binds | B4
 |  |  | binds | B5
 |  |  | binds | B6
 |  |  | binds | B7
0.189 | 0.037 |  |  | B8
0.235 | 0.051 |  |  | B9
0.827 | 0.172 |  |  | B10
